# IntAct's records for PubMed 30902834
# B1: Protein-arginine N-acetylglucosaminyltransferase SseK3 (Salmonella typhimurium (strain SL1344)), P0DUJ7 (parent)
# chain: MFSRVRGFLSCQNYSHTATPAITLPSSGSANFAGVEYPLLPLDQHTPLLFQWFERNPSRFGENQIPIINTQQNPYLNNIINAAIIEKERTIGVLVDGNFSAGQKKALAKLEKQYENIKVIYNSDLDYSMYDKKLSDIYLENIAKIEAQPANVRDEYLLGEIKKSLNEVLKNNPEESLVSSHDKRLGHVRFDFYRNLFLLKGSNAFLEAGKHGCHHLQPGGGCIYLDADMLLTGKLGTLYLPDGIAVHVSRKGNSMSLENGIIAVNRSEHPALKKGLEIMHSKPYGDPYIDGVCGGLRHYFNCSIRHNYEEFCNFIEFKHEHIFMDTSSLTISSWR
# B2: Protein-arginine N-acetylglucosaminyltransferase SseK3 (Salmonella typhimurium (strain SL1344)), P0DUJ7 (parent)
# chain: B1 chain
# partner: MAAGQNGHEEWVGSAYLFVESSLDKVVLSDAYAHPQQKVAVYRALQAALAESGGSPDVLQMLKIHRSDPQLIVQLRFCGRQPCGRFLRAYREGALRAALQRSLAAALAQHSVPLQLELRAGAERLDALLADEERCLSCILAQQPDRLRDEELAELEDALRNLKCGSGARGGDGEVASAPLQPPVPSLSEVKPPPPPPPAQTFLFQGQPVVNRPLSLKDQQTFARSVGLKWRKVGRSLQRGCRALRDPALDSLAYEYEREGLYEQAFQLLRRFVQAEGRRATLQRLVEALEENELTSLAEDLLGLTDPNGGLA
# Variants of: B1
# Conditions: with tr10b_human TNFRSF10B
row,Variant,effect of a mutation on the interaction
1,E258A,disrupting interaction

# Variants of: B2
# Conditions: with tradd_human TRADD
row,Variant,effect of a mutation on the interaction
1,E258A,disrupting interaction
